Publication PMC7939381, “MMP activation–associated aminopeptidase N reveals a bivalent 14-3-3 binding motif” (The Journal of Biological Chemistry, 2021)
Blank lines part the entries; values can stand above or below the substance they belong to.

How the values were obtained:
[1] = target: peptide 11, APN 36–73 pSer43 pThr63, as used in ITC and co-crystallisation (human) (UniProt P15144); test: ITC; 14-3-3η (500 µM; 250 µM for peptide 11) titrated into peptide (50 µM; 12.5 µM for peptide 11), 18 injections; 50 mM HEPES pH 7.4, 250 mM NaCl, 20 mM MgCl2; 25 °C
peptide 11, APN 36–73 pSer43 pThr63, as used in ITC and co-crystallisation (human), sequence (P15144 36-73): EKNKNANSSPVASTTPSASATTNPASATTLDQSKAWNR

[2] = target: peptide 7, APN 36–73 pSer43, as used in ITC (human) (UniProt P15144); test: as above
peptide 7, APN 36–73 pSer43, as used in ITC (human), sequence (P15144 36-73): as above

[3] = target: fluorescently labeled peptide 11, APN 36–73 pSer43 pThr63 (human) (UniProt P15144); test: fluorescence polarisation; direct binding: dilution series of 14-3-3 protein added to FITC-labeled peptide (30 nM stock, 5 µl in 15 µl); 10 mM HEPES pH 7.4, 150 mM NaCl, 2 mM DTT, 0.01% Tween 20; 60 min at room temperature, read at 25 °C; four-parameter fit
fluorescently labeled peptide 11, APN 36–73 pSer43 pThr63 (human), sequence (P15144 36-73): as above

[4] = target: fluorescently labeled peptide 7, APN 36–73 pSer43 (human) (UniProt P15144); test: as above
fluorescently labeled peptide 7, APN 36–73 pSer43 (human), sequence (P15144 36-73): as above

14-3-3β/α = 14-3-3β/α (UniProt P31946); test: direct fluorescence polarisation titration; details: reference: peptide 7 (pS43 only)
14-3-3σ (stratifin, SFN) = 14-3-3σ (stratifin, SFN) (UniProt P31947); test: direct fluorescence polarisation titration; details: reference: peptide 7 (pS43 only)
14-3-3η = 14-3-3η (UniProt Q04917); test: direct fluorescence polarisation titration; details: reference: peptide 7 (pS43 only)

Kd [1]: 0.14 µM
stoichiometry N [1]: 0.58
Kd [2]: 40.7 µM
stoichiometry N [2]: 1.13
Kd [3]: 0.046 µM
Kd [4]: 24 µM
Substance: 14-3-3η, full length, N-terminally His6-tagged (from UniProt Q04917 1-246) (natural protein)

binding against the reference (14-3-3β/α; sites T63): stronger
binding against the reference (14-3-3σ (stratifin, SFN); sites T63): stronger
Substance: Aminopeptidase N (APN, CD13) 36-73 (from UniProt P15144) peptide 11 (pS43 pT63)

binding against the reference (14-3-3β/α; sites S61): stronger
binding against the reference (14-3-3η; sites S61): stronger
binding against the reference (14-3-3σ (stratifin, SFN); sites S61): stronger
Substance: Aminopeptidase N (APN, CD13) 36-73 (from UniProt P15144) peptide 10 (pS43 pS61)

binding against the reference (14-3-3β/α; sites T64): stronger
binding against the reference (14-3-3η; sites T64): stronger
binding against the reference (14-3-3σ (stratifin, SFN); sites T64): stronger
Substance: Aminopeptidase N (APN, CD13) 36-73 (from UniProt P15144) peptide 12 (pS43 pT64)
